Experimental findings from JP2023032631A (dated 2023) are described below.

B1: 抗SARS-CoV-2 RBD VHH抗体 A02 (VHH, not shown: small tags and cut ends)
VHH: QVQLVESGGALVQPGGSLRLSCAASGFPVNRNTMHWFRQAPGKEREGVAGISSRGDWTYYEDSVKGRFTISRDDARNTVYLQMNSLKPEDTAVYYCAAYLWLLGGVYWGQGTQVTVGG
notes: also called A02
B2: 抗SARS-CoV-2 RBD VHH抗体 A03 (VHH, not shown: small tags and cut ends)
VHH: QVQLVESGGALVQPGGSLRLSCAASGFPVNHNAMHWFRQAPGKERESVAGISHVVYRTYYEDSVKGRFTISRDDARNTVYLQMNSLKPEDTAVYYCAAVALTDLRLYWGQGTQVTVGG
notes: also called A03
B3: 抗SARS-CoV-2 RBD VHH抗体 A15 (VHH, not shown: small tags and cut ends)
VHH: QVQLVESGGALVQPGGSLRLSCAASGFPVNRNTMHWYRQAPGKEREGVAGISSRGDWTYYEDSVKGRFTISRDDARNTVYLQMSSLKPEDTAVYYCAAVGVLSVSAFGWLYWGQGTQVTVGG
notes: also called A15
B4: 抗SARS-CoV-2 RBD VHH抗体 B02 (VHH, not shown: small tags and cut ends)
VHH: QVQLVESGGALVQPGGSLRLSCAASGFPVNRNTMHWFRQAPGKEREGVAGISSRGDWTYYEDSVKGRFTISRDDARNTVYLQMNSLKPEDTAVYYCAALLWNYGGVCWGQGTQVTVGG
notes: also called B02
B5: 抗SARS-CoV-2 RBD VHH抗体 B04 (VHH, not shown: small tags and cut ends)
VHH: QVQLVESGGALVQPGGSLRLSCAASGFPVNRNTMHWFRQAPGKEREGVAGISSRGDWTYYEDSVKGRFTISRDDARNTVYLQMNSLKPEDTAVYYCAALLWHYGGVYWGQGTQVTAGG
notes: also called B04
B6: 抗SARS-CoV-2 RBD VHH抗体 B13 (VHH, not shown: small tags and cut ends)
VHH: QVQLVESGGALVQPGGSLRLSCAASGFPVNHHTMLWFRQAPGKEREGVAGISFRGNWTYYEDSVKGRFTISRDDARNTVYLQMNSLKPEDTAVYYCAAHLWLLGGVYWGQGTQVTVGG
notes: also called B13
B7: 抗SARS-CoV-2 RBD VHH抗体 B16 (VHH, not shown: small tags and cut ends)
VHH: QVQLVESGGALVQPGGSLRLSCAASGFPVNHNAVHWFRQAPGKEREGVAGISHLVHRTYYEDSVKGRFTISRDDARNTVYLQMNSLKPEDTAVYYCAAYLWLLGGVYWGQGTQVTVGG
notes: also called B16

The first assay concerns the target T1, SARS-CoV-2 RBDタンパク質(Recombinant SARS-CoV-2, S1 Subunit Protein (RBD)、RayBiotech Life, Inc.) (SARS-CoV-2, UniProt P0DTC2 319-541). The assay is described as follows: ELISA, RBD coated 50 ng/well, VHH 50 ng/well, anti-FLAG detection, A450, n=4. In general terms: An ELISA detects its analyte on a solid surface through an enzyme-linked reagent.
As for B1, the binding result was “binds”.
The same measure, in the same setting: the value for B2 was “binds”.

Another assay addresses T1, SARS-CoV-2 RBDタンパク質(Recombinant …. Briefly: ELISA on coated RBD, legend of Figure 2, n=4.
Turning to B3, the binding result is given as “binds”.
For the molecule B4, the binding result was “binds”.
For B5, the binding result is recorded as “binds”.
Regarding B6, the binding result is “binds”.
B7: the binding result was “binds”.
